# Measured values from publication PMC3791465.
# B1: ERα activity-regulator synthetic peptide (ERAP) (peptide)
# chain: QMLSDLTLQLRQR
# modifications: not checked
# Target: 6 × His-tagged recombinant PHB2, Q99623
# Assay: SPR
# 6 × His-tagged recombinant PHB2, Q99623, sequence (Q99623 whole entry): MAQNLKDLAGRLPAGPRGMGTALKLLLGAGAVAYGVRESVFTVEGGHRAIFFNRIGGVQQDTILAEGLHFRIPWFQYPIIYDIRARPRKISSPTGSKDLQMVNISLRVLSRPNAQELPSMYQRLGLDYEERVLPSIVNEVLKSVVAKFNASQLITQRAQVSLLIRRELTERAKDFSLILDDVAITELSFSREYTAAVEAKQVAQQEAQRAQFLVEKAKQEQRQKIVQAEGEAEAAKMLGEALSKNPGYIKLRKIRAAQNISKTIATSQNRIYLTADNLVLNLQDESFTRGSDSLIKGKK
binder,measurement,value
B1,Kd,18.9 µM
